The record followed here is patent publication US20150087055A1, “ANALOG AND MIXED-SIGNAL COMPUTATION AND CIRCUITS IN LIVING CELLS” (MASSACHUSETTS INSTITUTE OF TECHNOLOGY, priority 2012, published 2015).

The assay relates to Plux promoter. The experiment in a line: LuxR/Plux circuit characterization by flow cytometry (AHL transfer functions). The format is cell-based, E. coli. The conditions noted are these: no AHL, IPTG=10 mM, GFP, MG1655 Pro cells (FIG. 19C). Here is the method:
Overnight cultures of E. coli strains were grown from glycerol freezer stocks at 37° C. 300 rpm in 3 mL of Luria-Bertani (LB)-Miller medium (Fisher #BP1426-2), with appropriate antibiotics: carbenicillin (50 μg/ml), kanamycin (30 μg/ml), chloramphenicol (25 μg/ml). The inducers used were arabinose, isopropyl-β-D-1-thiogalactopyranoside, and AHL 3OC6HSL (Sigma-Aldrich #K3007-10MG). Where appropriate, COPYCONTROL^24 from Epicentre (Madison, Wis.) was added to overnight cultures at 1× active concentration. Overnight cultures were diluted 1:100 into 3 mL fresh LB and antibiotics and were incubated at 37° C. 300 rpm for 20 minutes. […]
Cells were then diluted 4-fold into a new 96-well plate containing fresh 1×PBS and immediately assayed using a BD LSRFORTESSA-HTS. At least 50,000 events were recorded for all data, which was then gated by forward scatter and side scatter using CYFLOGIC v.1.2.1 software (CyFlo, Turku, Finland). The geometric means of the gated fluorescence distributions were calculated by Matlab. Fluorescence values are based on geometric means of flow cytometry populations from three experiments and the error bars represent standard errors of the mean.
For each experiment, fluorescence readings were taken on a BioTek Synergy H1 Microplate reader using BioTek Gen5 software to determine the minimum and maximum expression level for cultures in each 96-well plate. […]
On the technique in general: In flow cytometry, cells or beads pass a laser one at a time.

B1: LuxR: quorum-sensing transcriptional activator induced by AHL, activates promoter Plux (protein, UniProt P12746 1-250, looked up)
Transcriptional activator …: MKNINADDTYRIINKIKACRSNNDINQCLSDMTKMVHCEYYLLAIIYPHSMVKSDISILDNYPKKWRQYYDDANLIKYDPIVDYSNSNHSPINWNIFENNAVNKKSPNVIKEAKTSGLITGFSFPIHTANNGFGMLSFAHSEKDNYIDSLFLHACMNIPLIVPSLVDNYRKINIANNKSNNDLTKREKECLAWACEGKSSWDISKILGCSERTVTFHLTNAQMKLNTTNRCQSISKAILTGAIDCPYFKN
For B1, the “repression of the Plux promoter in the absence of AHL” value is given as “no repression”.
